# B1: VHH antibody Re21D01 (VHH)
# VHH: QVQLVESGGALVQPGGSLRLSCVASGFTFSSFAMGWYRQAPGKECEWVATITITGGSTNYADSVKGRFTISRDNAKNTVYLQMNSLKPEDTAVYYCNPDPGCRRGQGTQVTVSS
# Biological target: SARS-CoV-2 S1 334-526 N343D (SARS-CoV-2, UniProt P0DTC2 334-526)
# Test: co-secretion from Pichia pastoris; biochemical and structural analysis
binder,measurement,value
B1,binding result,binds

# Reference: patent US20240173398A1 (MAX PLANCK GESELLSCHAFT ZUR F RDERUNG DER WISSENSCHAFTEN E V, published 2024)
